# From patent US12618845B2, “Methods and compositions for protein sequencing” (Quantum-Si Incorporated, priority 2018, dated 2026)
# Substitutions are numbered along the chain they refer to. In names and notes the source's numbering stands.
# B1: Thermosynechococcus elongatus ClpS: amino acid recognition protein, SEQ ID NO: 12 (protein, listed as Thermosynechococcus elongatus)
# chain: MPQERQQVTRKHYPNYKVIVLNDDFNTFQHVAACLMKYIPNMTSDRAWELTNQVHYEGQAIVWVGPQEQAELYHEQLLRAGLTMAPLEPE
# B2: Agrobacterium tumifaciens ClpS1: amino acid recognition protein, SEQ ID NO: 4 (protein, listed as Agrobacterium tumifaciens)
# chain: MIAEPICMQGEGDGEDGGTNRGTSVITRVKPKTKRPNLYRVLLLNDDYTPMEFVIHILERFFQKDREAATRIMLHVHQHGVGECGVFTYEVAETKVSQVMDFARQHQHPLQCVMEKK
# B3: Synechococcus elongatus ClpS2: amino acid recognition protein, SEQ ID NO: 11 (protein, listed as Synechococcus elongatus)
# chain: MSPQPDESVLSILGVPRPCVKKRSRNDAFVLTVLTCSLQAIAAPATAPGTTTTRVRQPYPHFRVIVLDDDVNTFQHVAECLLKYIPGMTGDRAWDLTNQVHYEGAATVWSGPQEQAELYHEQLRREGLTMAPLEAA
# B4: GID4: GID4 evaluated as a potential reagent for proline recognition; species not stated at the place (protein, UniProt Q8IVV7 1-300, looked up)
# Glucose-induced degradation …: MCARGQVGRGTQLRTGRPCSQVPGSRWRPERLLRRQRAGGRPSRPHPARARPGLSLPATLLGSRAAAAVPLPLPPALAPGDPAMPVRTECPPPAGASAASAASLIPPPPINTQQPGVATSLLYSGSKFRGHQKSKGNSYDVEVVLQHVDTGNSYLCGYLKIKGLTEEYPTLTTFFEGEIISKKHPFLTRKWDADEDVDRKHWGKFLAFYQYAKSFNSDDFDYEELKNGDYVFMRWKEQFLVPDHTIKDISGASFAGFYYICFQKSAASIEGYYYHRSSEWYQSLNLTHVPEHSAPIYEFR
# B5: H. sapiens Fyn SH2 domain triple mutant superbinder: amino acid recognition protein, SEQ ID NO: 23 (protein, listed as Homo sapiens)
# chain: MGAMDSIQAEEWYFGKLGRKDAERQLLSFGNPRGTFLIRESETVKGAYALSIRDWDDMKGDHVKHYLIRKLDNGGYYITTRAQFETLQQLVQHYSERAAGLSSRLVVPSHK
# B6: Agrobacterium tumifaciens ClpS1 C7S C84S C112S: amino acid recognition protein, SEQ ID NO: 7 (protein, listed as Agrobacterium tumifaciens)
# chain: B2 chain with C7S, C84S, C112S
# B7: Synechococcus elongatus ClpS1: amino acid recognition protein, SEQ ID NO: 10 (protein, listed as Synechococcus elongatus)
# chain: MAVETIQKPETTTKRKIAPRYRVLLHNDDFNPMEYVVMVLMQTVPSLTQPQAVDIMMEAHTNGTGLVITCDIEPAEFYCEQLKSHGLSSSIEPDD
# B8: Escherichia coli ClpS: amino acid recognition protein, SEQ ID NO: 13 (protein, listed as Escherichia coli)
# chain: MGKTNDWLDFDQLAEEKVRDALKPPSMYKVILVNDDYTPMEFVIDVLQKFFSYDVERATQLMLAVHYQGKAICGVFTAEVAETKVAMVNKYARENEHPLLCTLEKA
# B9: Escherichia coli ClpS M40A: amino acid recognition protein, SEQ ID NO: 14 (protein, listed as Escherichia coli)
# chain: B8 chain with M40A
# B10: Plasmodium falciparum ClpS: amino acid recognition protein, SEQ ID NO: 15 (protein, listed as Plasmodium falciparum)
# chain: MFKDLKPFFLCIILLLLLIYKCTHSYNIKNKNCPLNFMNSCVRINNVNKNTNISFPKELQKRPSLVYSQKNFNLEKIKKLRNVIKEIKKDNIKEADEHEKKEREKETSAWKVILYNDDIHNFTYVTDVIVKVVGQISKAKAHTITVEAHSTGQALILSTWKSKAEKYCQELQQNGLTVSIIHESQLKDKQKK
# B11: Escherichia coli leucyl/phenylalanyl-tRNA-protein transferase: amino acid recognition protein, SEQ ID NO: 16 (protein, listed as Escherichia coli)
# chain: MRLVQLSRHSIAFPSPEGALREPNGLLALGGDLSPARLLMAYQRGIFPWFSPGDPILWWSPDPRAVLWPESLHISRSMKRFHKRSPYRVTMNYAFGQVIEGCASDREEGTWITRGVVEAYHRLHELGHAHSIEVWREDELVGGMYGVAQGTLFCGESMFSRMENASKTALLVFCEEFIGHGGKLIDCQVLNDHTASLGACEIPRRDYLNYLNQMRLGRLPNNFWVPRCLFSPQELE
# B12: Saccharomyces cerevisiae UBR1: amino acid recognition protein, SEQ ID NO: 18 (protein, listed as Saccharomyces cerevisiae)
# chain: MGSVHKHTGRNCGRKFKIGEPLYRCHECGCDDTCVLCIHCFNPKDHVNHHVCTDICTEFTSGICDCGDEEAWNSPLHCKAEEQ
# Columns and labels:
# [1] = system: N-terminal amino acid of peptides; test: Single-molecule terminal amino acid discrimination by labeled affinity reagent (dwell time analysis); assay type: binding; conditions: for Terminal amino acid recognition: single molecule traces, dwell time analysis
# Procedure: An adaptor protein involved in proteolytic pathways was identified as a potential candidate for use as a labeled affinity reagent for detecting N-terminal aromatic residues. The adaptor protein, ClpS2 from an α-proteobacterium (A. tumefaciens), was expressed and labeled at an exposed cysteine residue. […] The exposed cysteine residue was labeled with a rhodamine dye (ATTO 532).
# Peptides having different N-terminal aromatic residues were prepared to test whether the labeled ClpS2 was capable of N-terminal amino acid discrimination at the single molecule level.
# FIG. 19C is a plot showing discriminant pulse durations (time duration of signal peaks) among the three N-terminal residues when reversibly bound by labeled ClpS2. FIG. 19D is a plot showing discriminant interpulse durations (time duration between signal pulses) among the three N-terminal residues. […] Mean pulse duration for the different N-terminal residues is visualized by histograms (A)-(B) and layered histogram (C).
# [2] = system: amino acid at a terminal position of a polypeptide; conditions: amino acid identity at a terminal position of a polypeptide; phospho-Y also at an internal position; cited from earlier work
# [3] = system: immobilized peptide FYPLPWPDDDY with N-terminal phenylalanine; test: Simultaneous single-molecule recognition with differentially labeled recognition molecules; assay type: binding; conditions: 500 nM each binder
# Procedure: Single peptide molecules containing N-terminal phenylalanine ([…] (SEQ ID NO: 79)) were immobilized in sample wells of a chip. Buffer containing 500 nM each of at ClpS1 (Agrobacterium tumefaciens ClpS1; sequence provided in Table 1) and at ClpS2-V1 (Agrobacterium tumefaciens ClpS2 variant 1; sequence provided in Table 1) was added, where at ClpS1 and at ClpS2-V1 were labeled with Cy3 and Cy3B, respectively. Since the intensity of Cy3B is higher than Cy3, at ClpS2-V1 binding events were readily distinguishable from at ClpS1 binding events.
# The pulse duration distributions were distinct for each binder (FIG. 24B) and corresponded to their kinetic profiles as observed in single-binder experiments. Mean pulse duration was 1.3 seconds for at ClpS1 and 1.0 seconds for at ClpS2-V1 (FIG. 24C). Pulse rate was also distinct: 8.1 pulses/min for at ClpS1 and 14.1 pulses/min for at Clp2-V1 (FIG. 24C). Thus, when more than one recognition molecule is included for dynamic recognition of immobilized peptides, the binding characteristics of each recognition molecule (including pulse duration, interpulse duration, and pulse rate) can simultaneously provide information about peptide sequence.
# [4] = target: fluorescently-labeled peptides with N-terminal phospho-tyrosine, tyrosine or phospho-serine (Homo sapiens, UniProt P06241, C239S/C240S/C246S/K204L/S186A/T181V); test: Single-molecule recognition of post-translationally modified amino acids by immobilized SH2 domain variant
Molecule,Binding Pref. [2],further results
B1,"F, W, Y, L",Mean pulse duration ([1]; terminal leucine residue of polypeptides): 0.71 s
B2,"F, W, Y, L","Terminal amino acid recognition [1]: differentiable recognition of phenylalanine, leucine, tryptophan, and tyrosine; Mean pulse duration [3]: 1.3 s; Pulse rate [3]: 8.1 pulses/min"
B3,"F, W, Y, L, and V, I",Terminal amino acid recognition [1]: leucine recognition
B4,,Terminal amino acid recognition [1]: proline recognition
B5,phospho-Y,Peptide binding by the immobilized protein ([4]; peptide with N-terminal and penultimate unmodified tyrosines (YY)): not detected; Peptide binding by the immobilized protein ([4]; peptide with N-terminal phospho-serine): not detected; Peptide binding by the immobilized protein ([4]; peptide with N-terminal phospho-tyrosine): detected; Peptide binding by the immobilized protein ([4]; peptide with N-terminal unmodified tyrosine (Y)): not detected
B6,"F, W, Y, L",
B7,"F, W, Y",
B8,"F, W, Y, L",
B9,"F, W, Y, L",
B10,"F, W, Y, L,",
B11,"K, R",
B12,"K, R, H",
